B1: H_N20: microbial HemG protoporphyrinogen oxidase, SEQ ID NO:2 (SEQ ID NO:12 lacking start methionine) (protein, listed as Pantoea ananatis)
chain: MKALILFSTRDGQTQKIASAIADEIKGQQSCDVINIQDAKTLDWQQYDRVLIGASIRYGHFQPVVNEFVKHNLLALQQRVSGFFSVNLTARKPEKRSPETNAYTVKFLAQSPWQPDCCAVFAGALYYPRYRWFDRVMIQFIMRMTGGETDASKEVEYTDWQQVQRFARDFAQLPGKSY
B2: H_N50: microbial HemG protoporphyrinogen oxidase, SEQ ID NO:7 (SEQ ID NO:16 lacking start methionine) (protein, listed as Shimwellia blattae)
chain: MKTLILFSTRDGQTHKIARHIAGVLEEQGKACELVDLLQPGEPDWSTVECVVLGASIRYGHFHKSFIRFVNTHAQRLNNMPGALFTVNLVARKPEKQSPQTNSYTRKFLAASPWQPQRCQVFAGALRYPRYSWYDRMMIRLIMKMAGGETDTRKEVEYTDWQSVTRFAREIAQLPGETR
B3: H_N30: microbial HemG protoporphyrinogen oxidase, SEQ ID NO:5 (SEQ ID NO:14 lacking start methionine) (protein, listed as Erwinia toletana)
chain: MKALILFSSREGQTREIASYIANSIKEEMECDVFNILRVEQIDWSQYDRVLIGGSIHYGHFHPAVAKFVKRHLHELQQRSSGFFCVNLTARKADKRTPQTNAYMRKFLLQSPWQPDCCAVFAGALRYTRYRWFDRVMIQLIMRMTGGETDTSKEVEYTDWTQVARFAQEFAHLPGKTQ

Legend:
R0 soybean plants = assay: R0 transgenic soybean herbicide tolerance at eleven weeks; type: in vivo; conditions: R0 plants sprayed with S-3100 at eleven weeks, rated seven days after treatment
Description: The plantlets in the non-sprayed containers corresponding to constructs having a score of 2 were transplanted at approximately 7 weeks post transformation and grown as R0 plants using standard methods known in the art. Plantlets corresponding to non-tolerant scores of 0 and 1 were also grown to serve as negative controls. The R0 plants were grown in a greenhouse under long-day nursery conditions (18 hr light at 80° F. then 6 hr dark at 74° F.) for approximately four weeks. At eleven weeks, the R0 plants were sprayed with two passes of the same herbicide solution (0.3 g of 5-3100) described above. Herbicide injury ratings were collected seven days after treatment.
The results of the herbicide tolerance application at eleven weeks to the R0 plants confirmed the low percent injury rating scores observed in the high-throughput screen at five weeks. Any injury rating of 30% or above was equivalent to non-transgenic soybean injury ratings. A few of the constructs stood out as providing very good tolerance to the herbicide application. […] Data are provided in Table 10, where n.d. indicates the analysis was not conducted.

soybean plantlets = assay: High-throughput soybean screening for herbicide tolerance (plantlets); type: in vivo, soybean (A3555); design: key: 0 for poor tolerance, high damage, low green coloration; 1 for some tolerance, average damage, moderate green coloration; 2 for good tolerance, low damage, high green coloration; conditions: S-3100 spray five weeks post-transformation, scored day four
Source text: A high-throughput plant transformation and screening method was used to evaluate large numbers of constructs in transgenic plants for herbicide tolerance in early transformation plantlet tissue. This allowed for faster and higher volume screening of construct configurations and PPO enzymes.
This permitted the side-by-side comparison of seven different HemG PPO enzymes with thirty-seven different targeting peptides using the same promoter and 3′UTR elements for gene expression. These plant transformation constructs were used to transform soybean excised embryos (germplasm A3555) using A. tumefaciens and standard methods known in the art. Four hundred explants were inoculated for each construct resulting in twelve containers per construct. A sterile PPO herbicide solution was used for herbicide tolerance testing. The herbicide solution consisted of 0.3 g of S-3100 in crop oil concentrate (5.0 mL) and 495 mL of deionized water. This was filtered through a 0.45 micron Nalgene® Rapid-Flow™ Tissue Culture Filter Unit and Surfactant-Free Cellulose Acetate membrane filter unit (VWR, Radnor, PA, USA). The resulting sterile solution was shaken before application.
At five weeks post-transformation, four of the twelve plant containers per construct were sprayed with two passes of the sterile PPO herbicide solution. The treated plantlets were then enclosed in the container and received at least 15 hours of light exposure post spray each day for four days. At the end of day four post application of S-3100, the treated plantlets were photographed and scored on a visual scale of green coloration (green coloration was representative of healthy photosynthetic plant tissue as compared to photo-bleached tissue) versus damage. The scoring values were 0 for poor tolerance, high damage, low green coloration; 1 for some tolerance, average damage, moderate green coloration; and 2 for good tolerance, low damage, high green coloration. The scoring for each construct is presented in Table 9, where n.d. indicates the analysis was not conducted.

Row | Molecule | percent injury score (R0 soybean plants; TP13) | percent injury score (R0 soybean plants; TP15) | percent injury score (R0 soybean plants; TP17) | coloration score (soybean plantlets; TP9) | coloration score (soybean plantlets; TP11) | coloration score (soybean plantlets; TP12) | coloration score (soybean plantlets; TP13) | coloration score (soybean plantlets; TP14) | coloration score (soybean plantlets; TP15) | coloration score (soybean plantlets; TP16) | coloration score (soybean plantlets; TP17) | coloration score (soybean plantlets; TP18) | coloration score (soybean plantlets; TP19) | coloration score (soybean plantlets; TP21) | coloration score (soybean plantlets; TP24) | coloration score (soybean plantlets; TP26) | coloration score (soybean plantlets; TP27) | coloration score (soybean plantlets; TP28) | coloration score (soybean plantlets; TP29) | coloration score (soybean plantlets; TP33) | further results
1 | B1 | 20% | 30% | 25% | 1 | 1 | 2 | 2 | 0 | 1 | 1 | 2 | 1 | 1 | 0 | 1 | 1 | 1 | 1 | 1 | 1 | percent injury score (R0 soybean plants; TP12): 20%; percent injury score (R0 soybean plants; TP20): 20%; percent injury score (R0 soybean plants; TP29): 30%; coloration score (soybean plantlets; TP20): 2; coloration score (soybean plantlets; TP22): 1; coloration score (soybean plantlets; TP23): 1; coloration score (soybean plantlets; TP25): 1; coloration score (soybean plantlets; TP30): 1; coloration score (soybean plantlets; TP31): 1; coloration score (soybean plantlets; TP32): 0
2 | B2 | 40% | 40% | 40% | 1 | 0 | 1 | 1 | 1 | 2 | 0 | 1 | 1 | 0 | 1 | 1 | 1 | 1 | 1 | 1 | 1 | percent injury score (R0 soybean plants; TP9): 40%; percent injury score (R0 soybean plants; TP14): 40%; percent injury score (R0 soybean plants; TP22): 40%; percent injury score (R0 soybean plants; TP25): 35%; coloration score (soybean plantlets; TP10): 1; coloration score (soybean plantlets; TP22): 2; coloration score (soybean plantlets; TP23): 1; coloration score (soybean plantlets; TP25): 2; coloration score (soybean plantlets; TP30): 1; coloration score (soybean plantlets; TP31): 0; coloration score (soybean plantlets; TP32): 1; coloration score (soybean plantlets; TP34): 0; coloration score (soybean plantlets; TP36): 0; coloration score (soybean plantlets; TP37): 0
3 | B3 | – | 35% | – | 1 | 1 | 1 | 1 | – | 1 | – | 1 | 0 | 0 | – | 1 | 0 | 0 | 0 | 1 | 1 | percent injury score (R0 soybean plants; TP1): 5%; percent injury score (R0 soybean plants; TP9): 35%; percent injury score (R0 soybean plants; TP11): 35%; percent injury score (R0 soybean plants; TP26): 35%; coloration score (soybean plantlets; TP10): 0

— patent publication US12123009B2, “Methods and compositions for PPO herbicide tolerance in plants” (Monsanto Technology LLC, priority 2015, dated 2024)
